The values below come from US20200368258A1 (NORTHWESTERN UNIVERSITY, published 2020).

The test concerns the target T1, WWP2 recombinant protein (SEQ ID NO:24) (Homo sapiens (Human), UniProt O00308 1-870).
T1 construct: It was expressed with a pET28b His-tag/thrombin leader; also called WWP2 polypeptide; Nedd4 WWP2
The test can be described thus: fluorescence polarization, WWP2 dose-response up to 19.6 µM, FITC-peptide probe at 5 nM.

No end group written: not given here. *: point of attachment. FITC = O=C1OC2(c3ccc(O)cc3Oc3cc(O)ccc32)c2ccc(NC(=S)*)cc21

T1 sequence (O00308 other isoform, or with tags, fused parts or gaps limits assumed): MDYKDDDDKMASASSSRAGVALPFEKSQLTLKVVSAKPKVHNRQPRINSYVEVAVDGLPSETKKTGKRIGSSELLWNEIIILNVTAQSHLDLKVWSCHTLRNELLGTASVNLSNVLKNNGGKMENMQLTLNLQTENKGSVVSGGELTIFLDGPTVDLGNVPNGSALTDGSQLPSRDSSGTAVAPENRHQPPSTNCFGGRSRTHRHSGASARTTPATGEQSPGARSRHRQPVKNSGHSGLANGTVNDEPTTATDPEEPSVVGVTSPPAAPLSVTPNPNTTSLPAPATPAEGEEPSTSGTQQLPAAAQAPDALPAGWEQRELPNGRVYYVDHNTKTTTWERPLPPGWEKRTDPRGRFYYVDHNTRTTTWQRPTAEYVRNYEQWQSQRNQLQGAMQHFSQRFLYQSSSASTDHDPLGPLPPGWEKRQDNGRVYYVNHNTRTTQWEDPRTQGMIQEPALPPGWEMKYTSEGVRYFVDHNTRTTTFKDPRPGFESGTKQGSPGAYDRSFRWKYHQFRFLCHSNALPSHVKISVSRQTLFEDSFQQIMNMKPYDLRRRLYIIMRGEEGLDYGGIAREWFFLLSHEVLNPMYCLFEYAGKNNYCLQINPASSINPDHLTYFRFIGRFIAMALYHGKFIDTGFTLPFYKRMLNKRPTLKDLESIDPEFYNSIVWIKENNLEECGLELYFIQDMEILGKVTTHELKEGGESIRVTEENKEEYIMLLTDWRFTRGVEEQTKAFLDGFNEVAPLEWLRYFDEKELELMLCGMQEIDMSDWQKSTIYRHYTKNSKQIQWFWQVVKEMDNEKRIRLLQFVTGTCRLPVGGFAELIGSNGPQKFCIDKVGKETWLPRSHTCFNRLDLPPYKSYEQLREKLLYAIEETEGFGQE

B1: FITC-labeled peptide probe with three tandem PY motif binding units derived from the p2 region of ASLV gag (SEQ ID NO:18) (peptide)
peptide: {FITC}-ATASAPPPYVGSGGGATASAPPPYVGSGGGATASAPPPYVGSGGGRRR
notes: Synthetic peptide (Biosynthesis, TX); also called FITC-peptide; FTIC-peptide
For the molecule B1, the equilibrium dissociation constant (Kd) was 200 nM.
